These results are taken from US20170210818A1 (CALIFORNIA INSTITUTE FOR BIOMEDICAL RESEARCH, published 2017).

The target in the experiment is T1, CD19 on Nalm-6 cells (UniProt P15391 20-556, limits assumed).
T1 construct: whole, on cells; also called Nalm-6 cells (CD19 positive cells)
T1 sequence (looked up): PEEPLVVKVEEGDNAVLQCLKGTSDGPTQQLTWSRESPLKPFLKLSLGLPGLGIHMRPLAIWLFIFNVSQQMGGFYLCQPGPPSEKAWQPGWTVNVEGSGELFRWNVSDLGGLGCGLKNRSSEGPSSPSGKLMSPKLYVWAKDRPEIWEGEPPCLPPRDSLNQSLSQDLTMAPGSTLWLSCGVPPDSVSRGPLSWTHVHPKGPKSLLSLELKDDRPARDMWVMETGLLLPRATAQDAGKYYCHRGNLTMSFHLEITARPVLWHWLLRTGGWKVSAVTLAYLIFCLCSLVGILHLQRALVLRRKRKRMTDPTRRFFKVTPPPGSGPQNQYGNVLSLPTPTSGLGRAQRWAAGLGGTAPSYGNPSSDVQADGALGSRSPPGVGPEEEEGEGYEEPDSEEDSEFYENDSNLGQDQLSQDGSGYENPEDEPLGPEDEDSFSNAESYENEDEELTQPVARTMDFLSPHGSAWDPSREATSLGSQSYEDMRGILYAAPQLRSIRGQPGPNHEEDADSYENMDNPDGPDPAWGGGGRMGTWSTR
As to the kind of experiment: flow cytometry on Nalm-6 cells, 10 nM, fluorescent anti-human IgG secondary antibody. (In general: Flow cytometry measures light scatter and fluorescence of single cells or particles in a stream.)

Experimental: Nalm-6 and K562 cells were cultured according to vendor's protocol. Cells were centrifuged and blocked in 1× PBS with 10% FBS at 4° C. for 1 hour. […] The cell suspensions were shaken for 1 hour at 4° C. The cells were washed 3 times with PBS. The cells were incubated with a secondary antibody (e.g., Fluorescein-anti-human IgG or A488-anti-hIgG) at 4° C. for 1 hour. The cells were washed 3 times with PBS and resuspended in PBS. The cellular fluorescence distribution was determined by flow cytometry.

B1: anti-CD19ScFv-UCHT1-CL(Fab) (bispecific antibody)
heavy: EVQLQQSGPELVKPGASMKISCKASGYSFTGYTMNWVKQSHGKNLEWMGLINPYKGVSTYNQKFKDKATLTVDKSSSTAYMELLSLTSEDSAVYYCARSGYYGDSDWYFDVWGQGTTLTVFSASTKGPSVFPLAPSSKSTSGGTAALGCLVKDYFPEPVTVSWNSGALTSGVHTFPAVLQSSGLYSLSSVVTVPSSSLGTQTYICNVNHKPSNTKVDKKVEPKSC
light: DIQMTQTTSSLSASLGDRVTISCRASQDIRNYLNWYQQKPDGTVKLLIYYTSRLHSGVPSKFSGSGSGTDYSLTISNLEQEDIATYFCQQGNTLPWTFAGGTKLEIKRTVAAPSVFIFPPSDEQLKSGTASVVCLLNNFYPREAKVQWKVDNALQSGNSQESVTEQDSGGGGSGGGGSGGGGSEVKLQESGPGLVAPSQSLSVTCTVSGVSLPDYGVSWIRQPPRKGLEWLGVIWGSETTYYNSALKSRLTIIKDNSKSQVFLKMNSLQTDDTAIYYCAKHYYYGGSYAMDYWGQGTSVTVSSGGGGSGGGGSGGGGSDIQMTQTTSSLSASLGDRVTISCRASQDISKYLNWYQQKPDGTVKLLIYHTSRLHSGVPSRFSGSGSGTDYSLTISNLEQEDIATYFCQQGNTLPYTFGGGTKLEIGGGGSDSTYSLSSTLTLSKADYEKHKVYACEVTHQGLSSPVTKSFNRGEC
With B1, the binding result is listed as “binds”.
